# The nanobody polyreactivity screen of Harvey et al. (2022)
# Assay: yeast display, Sf9 membrane polyspecificity reagent, FACS + sequencing; frameworks hold sequencing errors
# In short: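 Nanobodies came from a synthetic yeast display library in Saccharomyces cerevisiae BJ5465, induced with galactose for 36–48 hours and stained for 1 hour at 4 °C with 10% biotinylated, detergent-solubilized Sf9 membrane reagent. Cells were enriched on streptavidin microbeads and then FACS-sorted, with low and high (top ~1%) gates set on anti-HA fluorescence for expression and streptavidin fluorescence for reagent binding. Each polyreactivity label reflects the gate a clone came from. Genes were amplified by colony PCR, sequenced by MiSeq 2 × 250 and filtered by CDR length.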
row,Sequence,polyreactivity (PSR sort gate)
1,QVQLVESGGGLVQAGGSLRLSCAASGRIFNYYAMGWYRQAPGKEREFVAAITSGGGSTYYADSVKGRFTISRDNAKNNVYLQMNSLKPEDTAVYYCNARLQSQVDAIGYGYWGQGTQVTVSS,high polyreactivity
2,QVQLVESGGGLVQAGGSLRLSCAASGFIFTPYAKGWYRQAPGKERELVAAISSGGSTYADSVKGRFTISRDNAKNTVYLQMNSLKPEDTAVYYCAAYYTGYSTTYYYWGQGTQVSVSS,low polyreactivity
3,QVQLVESGGGLVHAGGSLRLSCAASGRIFNYYAMGWYRQAPGKERALVAAISSGGSTYYADSEKGRFTISRDNAKNTVYLQMHSLKPEDTAVDYCNRVPRGVSRQDDYWGQGTQVTVSS,high polyreactivity
4,QVQLVDSGGGLVQAGGSLRLSCAASGRTFGGNAIGRYIQAPGKETELVAGINISGGSTNYADSVKGRFTISRDNAMNTVYLQMNSLKPEDTPVYYCNADTAVYAWDDDYWGQGTQVTVSS,low polyreactivity
5,QVQLVESGGGLVQAGGSLRLSCAASGSTFRYNAMGWYRQAPGKERELVASITWSGGDTYYADSVKGRFTISRDNAKNTVYLQMNSLKPEDTAVYYCAKKGYASRYFIYDYWGQGTQVTVSS,low polyreactivity
6,QVQLVESGGGLVQAGGSLRLSCAASGFTFAAYAMGWYRQAPGKERELVAAISWSGGSTRYADCVKGRYTISRDNAKNTVYLQKNSLIPEDTAVYYCNAVGYRVGIYSSKGDYWGQGTQVTVSS,high polyreactivity
7,QVQLVESGGGLVQARGSLRLSCAASGFTFGYNAMGWYRKAPGTERELVAVITQSGGRTYYADSVKGRFTISRDNANNSVYLQMNSLKPEDTAVYYCAARYRLAPYYYWGQGTQVTVSS,high polyreactivity
8,QVQLVESGGGLVQAGGSLRLSCASSGFIFSTSALGWYRQAPGKERELVAAISRTGGSTYYADSDKGRFTISRDNANNTVYLQMNSLKPEDTAVYYCAAAIYSFWYEYNYWGHGTQVTVSS,high polyreactivity
9,QVQLVESGGGLVQAGGSLRLSCAASGFISFDKAMGWYRQAPGKERELVAAIRSGGSTNYADSVKGLFTISRDNAKNTVYLQMNSLKPEDTAVYYCATDGSLRARSTSGWEYTNGDYWGQGTQVTVSS,low polyreactivity
10,QVQLVESGGGLVQAGRSLRLSCAASGFTFYYNAMGWYRQAPGKERELVAAISSGGSTYYADSVKGRFTISRDNAKNTVYLQMNSLKPEDTAVYYCAADSLYYRYDFWGQGTQVTVSS,low polyreactivity
11,QVQLVESVGGLVQAGGSLRLSCAASGFTFKYYAMGWYRQAPGKERELVAAITGTGGSTYYADSVKGRFTISRDTAKNTVYLLMNSLKPEDTAVYYCNAGSARGYVPYDSFAYDYWGQGTQVTVSS,low polyreactivity
12,QVKLVESGGGLVQAGGSLLLSCAASGITFSRNAMGLYREAPGKERELVAAINWTGGNTYYADSVKGRFTISRDNAKNTVYLQMISMKPEDTAVYYCAAERRCFVWGLGYWGQGTQVTVSS,low polyreactivity
13,QVQLVESGGGLVQAGGSLRLSCAASGYILHPNAMRWYRQSPGKDRELVAAIRWRGGSTYYADSVKGRFTISRDNAKNTVYLQMNSLKPEDTAVYYCAADKSKYRAFDYWGQGTQVTVSS,high polyreactivity
14,QVQLVESGGGLVQAGGSLRLSCAASGRIFYRYARGWYRQAPGKEREFVAAITSGTSTNYADSVKGRFTISRDNAKNSLYVQRNSLKPEDTAVYYCATRYYWKYAEYDYWGQGTQVTVSS,high polyreactivity
15,QVQLVESGGGLVQAGGSLRLSCAASGIIFYWYAMGWYRQAPGKERELVAGIDSDGSTNYADSVKGRFTISRDNAKNTVYLQMNSLKPEDTAVYYCAAVQGYRFYESYYWGQGTQVTVSS,low polyreactivity
16,QVQLVESGGGLVQAGGSLRLSCAASGRTFWTYAMGWYRQAPGKERELVASISKSGGSTYADSVKGRFTISRDNAKNTVYLQMNSLKPEDTAVYVCAAYPYFSKGWGWYPYDYWGQGTQVTVSS,low polyreactivity
17,QVQLVESGGGLVQAGGSLRLSCAASGNTFPLNAMGWYRQAPGKERELVAAISSSGRTYYADSVKGRFTISRDNAKNTVYLQMNSLKPEDTAVFYCNAKWRERGVRMDYWGQGTQVTVSS,high polyreactivity
18,QVQLVESGGGLVQAGGSLRLSCAASGRIFKRSVMGWYRQAPGKERELVAAITGRGGSTYYADSVKGRFTISRDNAKNTVYLQMNSLKPEDTAVYYCNAKDAEHYERFNYWGQGTQVTVSS,low polyreactivity
19,QVQLVESVGGLLQAGGRLRLSCAASGSTFGKYVMGWYRPAPGTERELVAAISLSGGSTYYADSVKGRFTISRDNAKNTVYLQMNCRKPEDTALNYCATVGYGYDYWGQATQVTVSS,high polyreactivity
20,QVQLVESGGGLVQAGGSLRLSCAASGRTFFRYAMGWYRQAPGKERELVAAITRGGSTNYADSVKGRFTISRDNAKNTVYLQMNSLKPEDTAVYYCAKTTFSYRGHYYWGQGTQVTVSS,high polyreactivity
21,QVQLVESGGGLVQAGGSLRLICAASGRTFILYTMGWYRQAPGKERELVAAITTGGSTSYADSVKGRFTISRDNAKNTVYLQMNSLKPEDTAVYNWAADTVGYSWRWFTWYEMGYWGQGTQVTVSS,low polyreactivity
22,QVQLVESGGGLVQAGGSLRLSCAASGRIFPSYDMGWYRQAPGKDRELVATISSRGDSTYYADSVKGRFTISRDNAKNTVYLQMNSLKPEDTAVYYCAAERPFWEYDYWGQGTQVTVSS,low polyreactivity

row,Sequence,polyreactivity (PSR sort gate)
1,QVQLVESGGGLVQAGGSLRLSCAASGFTFGYNAMGWYRQAPGKERELVAAISWSGGTYYADSVKGRFTISRDNAKNTVYLQMNSLKPEDTAVYYCAAVVVYWTSQIYYDGYYYWGQGTQVTVSS,high polyreactivity
2,QVQLVESGGGLVQAGGSLRLSCAASGRTFYANTMGWYRQAPGKERELVAGITSGGSTSYADSVKGRFTISRDNAKNTVYLQMNSLKPVDTAVYYCAAQFYRYTATGYYADGYWGQGTQVTVSS,low polyreactivity
3,QVQLVESGGGLVQAGGSLRLSCADSGSTFYPYAMGWYRQAPGKEREFVAAISRGGTTTYYADSVKGRFTISRDNAKNTVYLQMNSLKPEDTAVYYCAARYVSVYRWTYDYWGQGTQVTVSS,high polyreactivity
4,HVQLVESGGGLVQAGGSLRLSCAASGSIFDDYAMGWYRQAPGKERELVAAISSSGTSTYYADSVKGRFTISRDNAKNTVYLQMNSLKPEDTAVYYCAARSAILKSGYLMDYWGQGTQVTVSS,low polyreactivity
5,QVQLVESGGGLVQAGGTLRLTCAASGSIFHWNTMGWYRHAPGKESELFATITQRGGSTYYADSVKARFTLSRDNAKNTVYLQMNSLKPEDTAVYYCAAAIYRASRRRTSYSYDYWGQGTQVTVSS,high polyreactivity
6,QVQLVESGGGLVQAGGSLRLSCAASGLTFYYNTMGWYRQAPGKERELVAAINWSGGRTYYADSVKGRFTISRDNAKNTVYLQMNSLKPEDTAVYYCNAASSRALGYAYDYWGQGTQVTVSS,high polyreactivity
7,QVQLVESGGGLVQAGGSLRLSCAASGFIFSWYAMGWYRQAPGKERELVAAISYSGSNTYYADSVKGRFTISRDNAKNTVYLQMNSLKPEDTAVYYCAATLGSRWAIYDYWGQGTQVTVSS,high polyreactivity
8,QVQLVESRGGLVQAGGSLRLSCAASGRIFGSYAMGWYRQAPGKERVLVAAISYSGGSTYYADSVKGRFTISRDNAKNTVYLQMNSLKPEDTAVYYSNVDRYYGYFSVRGGYWGQGTQVTVSS,low polyreactivity
9,QVQLVESGGGLVQAGGSLRLSCAASGGTFVYYTMGWYRQAPGKERELVAAISGRGGRTYYADSVKGRFTISRDNAKNTVYLQMNSLKPEDTAVYYCTATQIGPYYLPFDSWGQGTQVTVSS,high polyreactivity
10,QVQLVESGGGLVQAGGSLRLSCAASGRTFAVYAMGWYRPAPGKERELVAGITSGGSTNYADSVKGRFTISRDNAKNTVYLQMNSLKPEDTAVYYCAAENVYAGFGFVSIGDYWGQGTQVTVSS,low polyreactivity
11,QVQLVESGGGLVQAGGSLRLSCAASGSIFQHYSLGRSRQAPGKERELVAAISYDTTSTYYADSVKGRFTISRDNAKNNVYLQMNSLKPEDTAVYYCNTYPEVYGPFQYDYWGQGTQVTVSS,low polyreactivity
12,QVQLVESGGGLVQAGGSLRLSCAASGSIFNRYAMGWYRQAPGKERELVAAISSTGSTYYADSVKGRFTISRDNAKNTVYLQMNSLKPEDTAVYYCNADATHDWLRVDTYEYWGQGTQVTVSS,low polyreactivity
13,QVQLVESGGGLVQAGGSLRLSSAHSGFIFAHNARGRYRQAPGKERELVAAITSSGGSTYYADSVKGRFRISRDNAKNTVYLQMNSVKPEDTAVYYCNDYTYARRGYDEWGQGTQVTVSS,high polyreactivity
14,QVHLEESGGGLVQAGGSLRLSCAASGLTFQWNAMGWYRQAPGKERELVAAISYSGGSTYYAYSVKGRFTISRDNAKYCVYLQMKSLKPEDTAVYYCAARTYSQWLQRYRLLGQGTQVTVSS,high polyreactivity
15,QVQLVESGGGLVQAGGSLRLSCAASGSTFDANTMGWYRQAPGKERELVAAISSNGGRTYYADSVKGRFTISRDNAKNTVYLQMNSLKPEDTAVYYCAATSYYRYRETYDYWGQGTQVTVSS,high polyreactivity
16,QVQLVESGGGLVQAGGSLRLSCASSGSTFAPNAMGWYSQAPGKEREFVAAITYRGSSTYYADSVKGRFTISRDNAKNTVYLQMNSLKPEDTAVYYCAADYVEYKVRSYDYWGQGTQVTVSS,low polyreactivity
17,QVQLVESGGGLVQAGGSLRLSCAASGRTFGLYAMGWYRQAPGKERELVASNTYSGGRTNYADSVKGRFTISRDNAKNTVYLQMNSLKPEDTAVYYCAASLWDDDSRLMYYWGQGTQVTVSS,high polyreactivity
18,QVQLVESGGGLDQAGGCLRLSCAASGRIFKYNAMGWYRQAPGTERELVAAISWNGDSTYYADSVKGRFTISRDIAKYTVYLQMNRLKPEDTAVYYCAVTGDYDMEYWGQGTQVTVSS,low polyreactivity
19,QVQLVESGGGLVQAGGSLRLSCAASGRTFIRYAMGWYRQAPRKEREMVAAISYSGGTTYYADSVKGRFTISRDNAKNTVYLQMNSLKPEDTAVYYCARAGGYPLSRYGYWGQGTQVTVSS,high polyreactivity
20,QVQLVESGGGVVQAGGSLRLSCAAYRSIFLFKAMGWYRQATGKERELVAAINRDDSTYYADSVKGRFTISRDNAKNTVYLQMNSLKPEDTAVYYCAAPVLHASYGYGYWGQGTQVTVSS,low polyreactivity
21,QVQLVESGGGLVQAGGSLRLSCAASGRIFYGYAMGWYRQAPGKEREFVAAITVSAGSTYYADSVKGRFTISRDNAKNTVYLQMNSLKPEDTAVYYCAAKRYVYPSYRFDYWGKGTQVTVSS,low polyreactivity
